{"source": "patent US11407811B2", "about": "“Fusion protein, preparation method therefor and use thereof” (JIANGSU RONGTAI BIOTECH CO., LTD., priority 2017, dated 2022)", "type_in_all_cases": "cell-based", "key": {"[1]": {"system": "gastric cancer cell MGC-803", "test": "MTT assay, proliferation of gastric cancer cell MGC-803", "method": "(§1) The MTT assay was used to detect the inhibitory effect of the integrin blocker fusion protein obtained in Example 1 on the proliferation of various tumor cells, including melanoma cell B16F10, gastric cancer cell MGC-803, lung cancer cell A549, liver cancer cell Hep-G2, breast cancer cell MDA-MB-231, colon cancer cell HCT-116, human glioma U87, and cervical cancer cell Hela.\n(§2) The tumor cells were cultured in a 5% CO2 incubator at 37° C. to a density of 90% or more, and collected by trypsinization. The cells were resuspended in the culture liquid and counted under a microscope. The cell concentration was adjusted to 3.0×10^4 cells/mL. The cell suspension was inoculated into a 96-well plate at 100 μL per well and cultured overnight in a 5% CO2 incubator at 37° C. […] After the cells were fully adhered, each dilution was added to a 96-well plate at 100 μL per well, respectively. […] 20 μL of 5 mg/mL MTT was added to each well of a 96-well plate, and incubation was continued for 4 hours. The medium was aspirated and 100 μL of DMSO per well were added to dissolve. The absorbance was measured at 570 nm with a microplate reader with a reference wavelength of 630 nm, and the proliferation inhibition (PI) was calculated. The formula is as follows: […]\n(§3) where Ntest is the OD value of the test group and Ncontrol is the OD value of the blank control group.\n(§4) The test was repeated 5 times independently. The results obtained from the test were calculated as mean±SD, and statistical t-test was performed. P<0.05 was considered as a significant difference, and P<0.01 was considered as an extremely significant difference."}, "[2]": {"system": "IL-1β production by mouse peritoneal macrophages", "test": "IL-1β production by mouse peritoneal macrophages (ELISA)", "method": "(1) IL-1β production: mice were intraperitoneally injected with 1 mL of broth medium containing 6% starch, and three days later, the mouse peritoneal macrophages were aseptically taken, washed twice with a 1640 medium, and the cell concentration was adjusted to 2×10^6 cells/mL, inoculated into a 24-well culture plate at 1 mL/well, incubated for 3 h in a cell incubator, and shaken once every 30 min, so that the cells were allowed to adhere sufficiently. Then, the cells were washed twice with a culture liquid to remove un-adhered cells. […] The supernatant was taken as a sample for testing activity of IL-1β.\n(2) Determination of IL-1β content: the detection was performed by using mouse IL-1β enzyme-linked immunosorbent assay kit from R&D company. According to the instructions of the kit, the procedures were as follows: the reaction well for the test samples and different concentrations of standards were sealed with sealing tapes, respectively, incubation was performed at 37° C. for 90 min; the plate was washed four times; a biotinylated antibody working solution (100 μL/well) was added, the reaction well was sealed with sealing tapes, and incubation was performed at 37° C. for 60 min; the plate was washed four times; an enzyme conjugate working solution (100 μL/well) was added, the reaction well was sealed with sealing tapes, incubation was performed at 37° C. for 30 min; the plate was washed four times; a developer (100 μL/well) was added, incubation was performed at 37° C. for 10 to 20 min, a stop solution (100 μL/well) was added and mixed and the OD450 value was measured."}, "[3]": {"system": "cervical cancer cell Hela", "test": "MTT assay, proliferation of cervical cancer cell Hela", "method": "as §1, §2, §3, §4"}, "[4]": {"system": "human retinal vascular endothelial cell (HRCEC)", "test": "MTT assay, proliferation of human retinal vascular endothelial cell (HRCEC)", "settings": "48 hours", "method": "The activity of the integrin blocker polypeptide to inhibit proliferation of human retinal vascular endothelial cells was examined by MTT assay. HRCEC cells were cultured in a 5% CO2 incubator at 37° C. to a density of 90% or more, and then collected by trypsinization. The cells were resuspended in the culture liquid and counted under a microscope. The cell concentration was adjusted to 3.0×10^4 cells/mL. The cell suspension was inoculated into a 96-well plate at 100 μL per well and cultured in a 5% CO2 incubator at 37° C. overnight. […] After the cells were fully adhered, each dilution was added to a 96-well plate at 100 μL per well, respectively. […] 20 μL of 5 mg/mL MTT was added to each well of a 96-well plate, and incubation was continued for 4 hours. The medium was aspirated and 100 μL of DMSO was added per well for dissolution. The absorbance was measured at 570 nm with a microplate reader with a reference wavelength of 630 nm, and the proliferation inhibition (PI) was calculated. The formula was as follows: […]\nas §3\nThe test was repeated 5 times independently. The results obtained from the test were calculated as mean±SD, and statistical t-test was performed. P<0.05 was considered as significant difference, and P<0.01 was considered as extremely significant difference."}}}
{"molecule": "Protein II: IgG2-Fc linked to antiangiogenesis polypeptide EDSM-Y via a flexible linker; SEQ ID NO: 17 (protein) ERKCCVECPPCPAPPVAGPSVFLFPPKPKDTLMISRTPEVTCVVVDVSHEDPEVQFNWYVDGVEVHNAKTKPREEQFNSTFRVVSVLTVVHQDWLNGKEYKCKVSNKGLPAPIEKTISKTKGQPREPQVYTLPPSREEMTKNQVSLTCLVKGFYPSDISVEWESNGQPENNYKTTPPMLDSDGSFFLYSKLTVDKSRWQQGNVFSCSVMHEALHNHYTQKSLSLSPGKGGGGSGGGGSGGGGSFQPVLHLVALNSPLSGGMRGIRGADFQCFQQARAVGLAGTFRAGGGGRGD", "values": [{"measurement": "A570 nm/A630 nm", "setting": "[1]; dose 1 μg/mL", "result": "1.1122 ± 0.0374"}, {"measurement": "PI (%)", "setting": "[1]; dose 1 μg/mL", "result": 8.98, "unit": "%"}, {"measurement": "A570 nm/A630 nm", "setting": "[1]; dose 2 μg/mL", "result": "1.0149 ± 0.0253"}, {"measurement": "PI (%)", "setting": "[1]; dose 2 μg/mL", "result": 16.94, "unit": "%"}, {"measurement": "A570 nm/A630 nm", "setting": "[1]; dose 4 μg/mL", "result": "0.8231 ± 0.0396"}, {"measurement": "PI (%)", "setting": "[1]; dose 4 μg/mL", "result": 32.64, "unit": "%"}, {"measurement": "A570 nm/A630 nm", "setting": "[1]; dose 8 μg/mL", "result": "0.7231 ± 0.0215"}, {"measurement": "PI (%)", "setting": "[1]; dose 8 μg/mL", "result": 40.82, "unit": "%"}, {"measurement": "PI (%)", "setting": "[1]; dose 8 μg/mL, listed as protein II", "result": "about 40%"}, {"measurement": "A570 nm/A630 nm", "setting": "[1]; dose 16 μg/mL", "result": "0.5216 ± 0.0192"}, {"measurement": "PI (%)", "setting": "[1]; dose 16 μg/mL", "result": 57.31, "unit": "%"}, {"measurement": "A570 nm/A630 nm", "setting": "[1]; dose 32 μg/mL", "result": "0.4398 ± 0.0347"}, {"measurement": "PI (%)", "setting": "[1]; dose 32 μg/mL", "result": 64.01, "unit": "%"}, {"measurement": "A570 nm/A630 nm", "setting": "[1]; dose 64 μg/mL", "result": "0.3378 ± 0.0286"}, {"measurement": "PI (%)", "setting": "[1]; dose 64 μg/mL", "result": 72.35, "unit": "%"}, {"measurement": "A570 nm/A630 nm", "setting": "[1]; dose 128 μg/mL", "result": "0.2203 ± 0.0147"}, {"measurement": "PI (%)", "setting": "[1]; dose 128 μg/mL", "result": 81.97, "unit": "%"}, {"measurement": "A570 nm/A630 nm", "setting": "[1]; dose 256 μg/mL", "result": "0.0987 ± 0.0159"}, {"measurement": "PI (%)", "setting": "[1]; dose 256 μg/mL", "result": 91.92, "unit": "%"}, {"measurement": "IL-1β", "setting": "[2]; dose 8 μg/mL", "result": "746.38 ± 16.59", "unit": "pg/mL"}, {"measurement": "PI (%)", "setting": "[2]; dose 8 μg/mL", "result": 11.85, "unit": "%"}, {"measurement": "IL-1β", "setting": "[2]; dose 32 μg/mL", "result": "596.02 ± 19.97", "unit": "pg/mL"}, {"measurement": "PI (%)", "setting": "[2]; dose 32 μg/mL", "result": 29.61, "unit": "%"}, {"measurement": "IL-1β", "setting": "[2]; dose 128 μg/mL", "result": "440.56 ± 11.38", "unit": "pg/mL"}, {"measurement": "PI (%)", "setting": "[2]; dose 128 μg/mL", "result": 47.97, "unit": "%"}, {"measurement": "inhibition of IL-1β production", "setting": "[2]; in words", "result": "could significantly inhibit IL-1β production"}, {"measurement": "A570 nm/A630 nm", "setting": "[3]; dose 1 μg/mL", "result": "0.7798 ± 0.0386"}, {"measurement": "PI (%)", "setting": "[3]; dose 1 μg/mL", "result": 2.43, "unit": "%"}, {"measurement": "A570 nm/A630 nm", "setting": "[3]; dose 2 μg/mL", "result": "0.7412 ± 0.0407"}, {"measurement": "PI (%)", "setting": "[3]; dose 2 μg/mL", "result": 7.26, "unit": "%"}, {"measurement": "A570 nm/A630 nm", "setting": "[3]; dose 4 μg/mL", "result": "0.6946 ± 0.0272"}, {"measurement": "PI (%)", "setting": "[3]; dose 4 μg/mL", "result": 13.09, "unit": "%"}, {"measurement": "A570 nm/A630 nm", "setting": "[3]; dose 8 μg/mL", "result": "0.6312 ± 0.0313"}, {"measurement": "PI (%)", "setting": "[3]; dose 8 μg/mL", "result": 21.02, "unit": "%"}, {"measurement": "A570 nm/A630 nm", "setting": "[3]; dose 16 μg/mL", "result": "0.5418 ± 0.0286"}, {"measurement": "PI (%)", "setting": "[3]; dose 16 μg/mL", "result": 32.21, "unit": "%"}, {"measurement": "A570 nm/A630 nm", "setting": "[3]; dose 32 μg/mL", "result": "0.4788 ± 0.0262"}, {"measurement": "PI (%)", "setting": "[3]; dose 32 μg/mL", "result": 40.09, "unit": "%"}, {"measurement": "A570 nm/A630 nm", "setting": "[3]; dose 64 μg/mL", "result": "0.4023 ± 0.0314"}, {"measurement": "PI (%)", "setting": "[3]; dose 64 μg/mL", "result": 49.66, "unit": "%"}, {"measurement": "PI (%)", "setting": "[3]; dose 64 μg/mL, listed as protein II", "result": "about 45%"}, {"measurement": "A570 nm/A630 nm", "setting": "[3]; dose 128 μg/mL", "result": "0.2878 ± 0.0275"}, {"measurement": "PI (%)", "setting": "[3]; dose 128 μg/mL", "result": 63.99, "unit": "%"}, {"measurement": "A570 nm/A630 nm", "setting": "[3]; dose 256 μg/mL", "result": "0.1748 ± 0.0303"}, {"measurement": "PI (%)", "setting": "[3]; dose 256 μg/mL", "result": 78.13, "unit": "%"}, {"measurement": "A570 nm/A630 nm", "setting": "[4]; 1 μg/mL", "result": "1.1122 ± 0.0385"}, {"measurement": "PI", "setting": "[4]; 1 μg/mL", "result": 17.44, "unit": "%"}, {"measurement": "A570 nm/A630 nm", "setting": "[4]; 2 μg/mL", "result": "1.0002 ± 0.0405"}, {"measurement": "PI", "setting": "[4]; 2 μg/mL", "result": 25.75, "unit": "%"}, {"measurement": "A570 nm/A630 nm", "setting": "[4]; 4 μg/mL", "result": "0.9287 ± 0.0288"}, {"measurement": "PI", "setting": "[4]; 4 μg/mL", "result": 31.06, "unit": "%"}, {"measurement": "A570 nm/A630 nm", "setting": "[4]; 8 μg/mL", "result": "0.8999 ± 0.0320"}, {"measurement": "PI", "setting": "[4]; 8 μg/mL", "result": 33.20, "unit": "%"}, {"measurement": "A570 nm/A630 nm", "setting": "[4]; 16 μg/mL", "result": "0.8225 ± 0.0291"}, {"measurement": "PI", "setting": "[4]; 16 μg/mL", "result": 38.94, "unit": "%"}, {"measurement": "A570 nm/A630 nm", "setting": "[4]; 32 μg/mL", "result": "0.7348 ± 0.0277"}, {"measurement": "PI", "setting": "[4]; 32 μg/mL", "result": 45.45, "unit": "%"}, {"measurement": "A570 nm/A630 nm", "setting": "[4]; 64 μg/mL", "result": "0.5748 ± 0.0314"}, {"measurement": "PI", "setting": "[4]; 64 μg/mL", "result": 57.33, "unit": "%"}, {"measurement": "A570 nm/A630 nm", "setting": "[4]; 128 μg/mL", "result": "0.3628 ± 0.0282"}, {"measurement": "PI", "setting": "[4]; 128 μg/mL", "result": 73.07, "unit": "%"}, {"measurement": "A570 nm/A630 nm", "setting": "[4]; 256 μg/mL", "result": "0.1495 ± 0.0314"}, {"measurement": "PI", "setting": "[4]; 256 μg/mL", "result": 88.90, "unit": "%"}]}
